According to patent publication US20240010735A1 (EISAI R AND D MANAGEMENT, published 2024):

How the values were obtained:
Test in all cases: ELISA: SEAP-His proteins (1 nM) captured on anti-6-His antibody, antibody A 10 µg/mL with human IgG 100 µg/mL, HRP anti-mouse IgG, OD450 as % of human EphA4-SEAP-His
[1] = molecular target: T1, human EphB4 extracellular region-SEAP-His protein (human, UniProt P54760 16-539)
T1 construct: extracellular domain; also called Eph receptor extracellular region-SEAP-His protein; not shown: secretory alkaline phosphatase (SEAP); histidine tag
T1 sequence (looked up): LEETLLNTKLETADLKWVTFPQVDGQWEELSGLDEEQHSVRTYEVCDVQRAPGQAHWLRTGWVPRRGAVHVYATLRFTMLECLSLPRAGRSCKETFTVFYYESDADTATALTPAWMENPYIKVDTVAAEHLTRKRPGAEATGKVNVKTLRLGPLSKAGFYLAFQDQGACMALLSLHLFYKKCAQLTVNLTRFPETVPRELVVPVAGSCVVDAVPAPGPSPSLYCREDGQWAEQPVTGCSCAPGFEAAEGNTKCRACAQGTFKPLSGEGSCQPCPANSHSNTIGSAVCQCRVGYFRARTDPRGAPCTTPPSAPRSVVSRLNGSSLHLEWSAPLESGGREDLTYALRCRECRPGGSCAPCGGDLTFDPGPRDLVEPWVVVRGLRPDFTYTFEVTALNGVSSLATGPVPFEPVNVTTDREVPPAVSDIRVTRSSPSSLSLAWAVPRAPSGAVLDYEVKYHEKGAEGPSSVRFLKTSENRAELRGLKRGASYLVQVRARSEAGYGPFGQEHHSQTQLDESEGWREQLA
Method: (§1) Rabbit anti-6-His antibodies (Bethel Laboratories) were coated onto the wells of a 96-well plate (Nunc). After incubating at 4° C. overnight, the wells were blocked at room temperature for 1 hour by 1% Block Ace (DS Pharma Biomedical). After washing 3 times with 0.05% Tween 20/PBS (Thermo […]), each Eph receptor of human extracellular region-SEAP-His protein (final concentration 1 nM) was seeded into each well, and incubated at room temperature for 1 hour. After washing 3 times, human IgG solution (100 μg/mL, Mitsubishi Pharma Corporation) and antibody A (10 μg/mL) were supplemented to the wells, and incubated at room temperature for 1 hour. Horseradish peroxidase-labeled donkey anti-mouse IgG antibody (Jackson ImmunoResearch Laboratories) was added, and incubated at room, temperature for 1 hour. After washing 3 times, TMBZ (3,3′,5,5′-tetramethylbenzidine, Sigma) solution was added to the wells, and upon confirmation of modest coloring, an equal amount of quenching solution (1 N H₂SO₄, Wako Pure Chemicals) was added to the wells, and absorbance at 450 nm was read by a microplate reader (PerkinElmer).

[2] = molecular target: T2, human EphB6 extracellular region-SEAP-His protein (human, UniProt O15197 32-594)
T2 construct: extracellular domain; also called Eph receptor extracellular region-SEAP-His protein; not shown: secretory alkaline phosphatase (SEAP); histidine tag
T2 sequence (looked up): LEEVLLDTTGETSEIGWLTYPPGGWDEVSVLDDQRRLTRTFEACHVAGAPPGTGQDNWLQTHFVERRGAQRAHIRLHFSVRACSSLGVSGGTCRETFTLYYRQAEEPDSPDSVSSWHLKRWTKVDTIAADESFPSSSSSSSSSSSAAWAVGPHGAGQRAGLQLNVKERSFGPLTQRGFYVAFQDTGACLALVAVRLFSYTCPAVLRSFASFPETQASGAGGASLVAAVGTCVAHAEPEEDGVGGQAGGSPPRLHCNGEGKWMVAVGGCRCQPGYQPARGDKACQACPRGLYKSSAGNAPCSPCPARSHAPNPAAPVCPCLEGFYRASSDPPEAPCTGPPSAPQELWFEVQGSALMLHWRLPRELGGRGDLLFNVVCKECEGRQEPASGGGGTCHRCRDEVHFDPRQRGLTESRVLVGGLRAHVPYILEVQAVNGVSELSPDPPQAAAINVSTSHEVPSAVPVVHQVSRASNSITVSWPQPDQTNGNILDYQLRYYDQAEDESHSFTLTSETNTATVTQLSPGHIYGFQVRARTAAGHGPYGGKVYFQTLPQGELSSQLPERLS
Method: as §1

[3] = molecular target: T3, human EphA7 extracellular region-SEAP-His protein (human, UniProt Q15375 28-555)
T3 construct: extracellular domain; also called Eph receptor extracellular region-SEAP-His protein; not shown: secretory alkaline phosphatase (SEAP); histidine tag
T3 sequence (looked up): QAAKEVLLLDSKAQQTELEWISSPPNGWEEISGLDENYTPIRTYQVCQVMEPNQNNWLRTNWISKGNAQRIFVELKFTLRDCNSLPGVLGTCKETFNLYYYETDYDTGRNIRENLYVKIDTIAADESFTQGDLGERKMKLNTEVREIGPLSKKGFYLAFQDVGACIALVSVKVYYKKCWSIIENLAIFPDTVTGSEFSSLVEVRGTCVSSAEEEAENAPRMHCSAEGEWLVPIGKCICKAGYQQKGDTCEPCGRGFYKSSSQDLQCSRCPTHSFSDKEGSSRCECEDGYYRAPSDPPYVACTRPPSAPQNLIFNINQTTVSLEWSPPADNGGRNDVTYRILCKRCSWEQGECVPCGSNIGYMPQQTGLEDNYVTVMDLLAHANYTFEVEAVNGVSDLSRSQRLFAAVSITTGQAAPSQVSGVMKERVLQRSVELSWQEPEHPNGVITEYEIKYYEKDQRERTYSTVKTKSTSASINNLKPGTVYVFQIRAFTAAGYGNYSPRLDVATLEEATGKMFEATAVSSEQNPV
Method: as §1

[4] = molecular target: T4, human EphA5 extracellular region-SEAP-His protein (human, UniProt P54756 25-573)
T4 construct: extracellular domain; also called Eph receptor extracellular region-SEAP-His protein; not shown: secretory alkaline phosphatase (SEAP); histidine tag
T4 sequence (P54756 25-573): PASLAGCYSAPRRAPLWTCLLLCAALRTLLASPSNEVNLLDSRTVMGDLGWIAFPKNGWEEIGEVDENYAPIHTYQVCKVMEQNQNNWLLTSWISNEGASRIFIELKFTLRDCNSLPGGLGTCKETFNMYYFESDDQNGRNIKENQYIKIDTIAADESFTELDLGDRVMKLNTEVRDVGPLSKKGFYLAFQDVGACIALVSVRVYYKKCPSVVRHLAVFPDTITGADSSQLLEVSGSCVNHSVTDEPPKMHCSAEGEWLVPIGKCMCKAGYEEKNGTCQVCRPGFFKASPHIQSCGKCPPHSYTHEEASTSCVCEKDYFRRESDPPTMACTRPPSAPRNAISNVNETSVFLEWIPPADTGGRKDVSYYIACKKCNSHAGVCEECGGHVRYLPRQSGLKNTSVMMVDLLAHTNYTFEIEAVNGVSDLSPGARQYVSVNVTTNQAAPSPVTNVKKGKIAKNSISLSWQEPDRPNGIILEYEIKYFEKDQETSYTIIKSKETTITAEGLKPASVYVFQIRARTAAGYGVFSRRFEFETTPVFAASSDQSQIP
Method: as §1

Measured: binding result

B1: mouse anti-EphA4 monoclonal antibody (antibody A) (antibody, mouse IgG1, kappa, V domains shown)
VH: QVQLKQSGPSLVQPSQSLSITCTVSGFSLTRYGVHWVRQSPGKGLEWLGVIWRGGSTDYNAAFMSRLSITKDNSKSQVFFKMNSLQADDTAIYYCAKESLFGVYYDYGYYSMDYWGQGTSVTVSS
VL: DIQMTQSPSSLSASLGERVSLTCRASQEISGYLSWLQQKPDGTIKRLIYAASTLDSGVPKRFSGSRSGSDYSLTISSLESEDFADYYCLQYASYPLTFGAGTKLELKR
notes: purified from hybridoma supernatant
no binding (tested: 10 µg/mL): all assays above
